Assay results taken from article PMC4546420.

Target: MBP-linker-MPR-TM (HIV-1) (UniProt P04578)
Test: SEC; Superdex-200 HR 10/300, 20 mM NaCl, 20 mM Tris-HCl pH 7.5, 0.015% beta-DDM; calibrated with protein standards; protein in beta-DDM micelles

MBP-linker-MPR-TM (from UniProt P04578 649-705) (domain or fragment)
stoichiometry N: > 6
